Test results: paper PMC12796746, “Profiling the TRPV4 ankyrin repeat domain interactome and its disruption by neuromuscular disease-causing mutations” (The Journal of Biological Chemistry, 2025)

B1: 3-hydroxybutyrate dehydrogenase type 2 (natural protein, human, UniProt Q9BUT1 1-245, looked up)
chain: MGRLDGKVIILTAAAQGIGQAAALAFAREGAKVIATDINESKLQELEKYPGIQTRVLDVTKKKQIDQFANEVERLDVLFNVAGFVHHGTVLDCEEKDWDFSMNLNVRSMYLMIKAFLPKMLAQKSGNIINMSSVASSVKGVVNRCVYSTTKAAVIGLTKSVAADFIQQGIRCNCVCPGTVDTPSLQERIQARGNPEEARNDFLKRQKTGRFATAEEIAMLCVYLASDESAYVTGNPVIIDGGWSL
notes: human, spotted on the HuProt array; also called BDH2; source: bought: CDI Laboratories (HuProt v2.0 microarray)
B2: Uncharacterized protein C4orf36 (natural protein, human, UniProt Q96KX1 1-117, looked up)
chain: MAYGVPRKNTVKTILRGSCYNVQEPWDIALLAKTWSTNLANIKLPFLEEISFGGSVQLTKCTTIKDGLLPSAESIKLEREYEVKRLCKLKCQENTSKEIQLLLRERPAGLRRPLPSK
notes: human, spotted on the HuProt array; source: bought: CDI Laboratories (HuProt v2.0 microarray)
B3: Cysteine-rich DPF motif domain-containing protein 1 (natural protein, human, UniProt Q6NVV7 1-123, looked up)
chain: MASHVECRPLGVFECELCTLTAPYSYVGQKPPNTQSMVLLEESYVMKDPFTSDKDRFLVLGSCCSLCSRLVCVGPECSLFYSKRFCLPCVRENINAFPQEIRQDLEKRKAPSKRTPSQPGSRT
notes: human, spotted on the HuProt array; also called CDPF1; source: bought: CDI Laboratories (HuProt v2.0 microarray)
B4: Uncharacterized protein C6orf141 (natural protein, human, UniProt Q5SZD1 1-244, looked up)
chain: MNDPFARMETRGPQGAANPMDSSRSLGDLGPFPREVGRGAPLAPGARNPATAGASRSQGGGHEDRTADRALGPRAGEELDRESWVREKVLFLLHPERWLGTRGDPAREEVAGAEDLPHAGGEDHGEEPNYPSVFQRQKRISGRRVAPPRDAADPPKYVLVRVEDYQVTQEVLQTSWAKGRMTTRTEEHFVTALTFRSSREGQPGERWGPAESRALQARTGASRVHAAGRRVSPSPGTWLEEIKL
notes: as for B2
B5: Small proline-rich protein 2B (natural protein, human, UniProt P35325 1-72, looked up)
chain: MSYQQQQCKQPCQPPPVCPTPKCPEPCPPPKCPEPCPPPKCPQPCPPQQCQQKYPPVTPSPPCQPKYPPKSK
notes: human, spotted on the HuProt array; also called SPRR2B; source: bought: CDI Laboratories (HuProt v2.0 microarray)
B6: Centrin-3 (natural protein, human, UniProt O15182 1-167, looked up)
chain: MSLALRSELVVDKTKRKKRRELSEEQKQEIKDAFELFDTDKDEAIDYHELKVAMRALGFDVKKADVLKILKDYDREATGKITFEDFNEVVTDWILERDPHEEILKAFKLFDDDDSGKISLRNLRRVARELGENMSDEELRAMIEEFDKDGDGEINQEEFIAIMTGDI
notes: human, spotted on the HuProt array; also called CETN3; source: bought: CDI Laboratories (HuProt v2.0 microarray)
B7: Myosin light chain 1/3, skeletal muscle isoform (natural protein)
chain: not shown
notes: human, spotted on the HuProt array; also called MYL1; source: bought: CDI Laboratories (HuProt v2.0 microarray)
B8: Protein N-terminal glutamine amidohydrolase (natural protein)
chain: not shown
notes: human, spotted on the HuProt array; also called WDYHV1; source: bought: CDI Laboratories (HuProt v2.0 microarray)
B9: ADP-ribosylation factor-like protein 10 (natural protein, human, UniProt Q8N8L6 1-244, looked up)
chain: MAPRPLGPLVLALGGAAAVLGSVLFILWKTYFGRGRERRWDRGEAWWGAEAARLPEWDEWDPEDEEDEEPALEELEQREVLVLGLDGAGKSTFLRVLSGKPPLEGHIPTWGFNSVRLPTKDFEVDLLEIGGSQNLRFYWKEFVSEVDVLVFVVDSADRLRLPWARQELHKLLDKDPDLPVVVVANKQDLSEAMSMGELQRELGLQAIDNQREVFLLAASIAPAGPTFEEPGTVHIWKLLLELLS
notes: human, spotted on the HuProt array; also called ARL10; source: bought: CDI Laboratories (HuProt v2.0 microarray)
B10: Polyadenylate-binding protein-interacting protein 2 (natural protein, human, UniProt Q9BPZ3 1-127, looked up)
chain: MKDPSRSSTSPSIINEDVIINGHSHEDDNPFAEYMWMENEEEFNRQIEEELWEEEFIERCFQEMLEEEEEHEWFIPARDLPQTMDQIQDQFNDLVISDGSSLEDLVVKSNLNPNAKEFVPGVKYGNI
notes: human, spotted on the HuProt array; also called PAIP2; source: bought: CDI Laboratories (HuProt v2.0 microarray)
B11: Huntingtin-interacting protein K (natural protein, human, UniProt Q9NX55 1-121, looked up)
chain: MATEGDVELELETETSGPERPPEKPRKHDSGAADLERVTDYAEEKEIQSSNLETAMSVIGDRRSREQKAKQEREKELAKVTIKKEDLELIMTEMEISRAAAERSLREHMGNVVEALIALTN
notes: human, spotted on the HuProt array; also called HYPK; source: bought: CDI Laboratories (HuProt v2.0 microarray)
B12: Protein FAM104B (natural protein, human, UniProt Q5XKR9 1-115, looked up)
chain: MGGCPVRKRRRNGSKEGNHHSTQPKRNKRNPIFQDSQDTEFSWSDNERSSSRINIPERASGPEGNLNQIVTEPDANFPQFLHEGLSKPVYVINWFMSFGPEIKLNTSQQGRNQAV
notes: as for B2
B13: Short coiled-coil protein (natural protein, human, UniProt Q9UIL1 1-159, looked up)
chain: MRRRVFSSQDWRASGWDGMGFFSRRTFCGRSGRSCRGQLVQVSRPEVSAGSLLLPAPQAEDHSSRILYPRPKSLLPKMMNADMDAVDAENQVELEEKTRLINQVLELQHTLEDLSARVDAVKEENLKLKSENQVLGQYIENLMSASSVFQTTDTKSKRK
notes: human, spotted on the HuProt array; also called SCOC; source: bought: CDI Laboratories (HuProt v2.0 microarray)
B14: 14-3-3 protein eta (natural protein, human, UniProt Q04917 1-246, looked up)
chain: MGDREQLLQRARLAEQAERYDDMASAMKAVTELNEPLSNEDRNLLSVAYKNVVGARRSSWRVISSIEQKTMADGNEKKLEKVKAYREKIEKELETVCNDVLSLLDKFLIKNCNDFQYESKVFYLKMKGDYYRYLAEVASGEKKNSVVEASEAAYKEAFEISKEQMQPTHPIRLGLALNFSVFYYEIQNAPEQACLLAKQAFDDAIAELDTLNEDSYKDSTLIMQLLRDNLTLWTSDQQDEEAGEGN
notes: human, spotted on the HuProt array; also called YWHAH; source: bought: CDI Laboratories (HuProt v2.0 microarray)
B15: Deoxycytidylate deaminase (natural protein, human, UniProt P32321 1-178, looked up)
chain: MSEVSCKKRDDYLEWPEYFMAVAFLSAQRSKDPNSQVGACIVNSENKIVGIGYNGMPNGCSDDVLPWRRTAENKLDTKYPYVCHAELNAIMNKNSTDVKGCSMYVALFPCNECAKLIIQAGIKEVIFMSDKYHDSDEATAARLLFNMAGVTFRKFIPKCSKIVIDFDSINSRPSQKLQ
notes: human, spotted on the HuProt array; also called DCTD; source: bought: CDI Laboratories (HuProt v2.0 microarray)
B16: Ras-related protein Rab-7L1 (natural protein, human, UniProt O14966 1-203, looked up)
chain: MGSRDHLFKVLVVGDAAVGKTSLVQRYSQDSFSKHYKSTVGVDFALKVLQWSDYEIVRLQLWDIAGQERFTSMTRLYYRDASACVIMFDVTNATTFSNSQRWKQDLDSKLTLPNGEPVPCLLLANKCDLSPWAVSRDQIDRFSKENGFTGWTETSVKENKNINEAMRVLIEKMMRNSTEDIMSLSTQGDYINLQTKSSSWSCC
notes: human, spotted on the HuProt array; also called RAB29; source: bought: CDI Laboratories (HuProt v2.0 microarray)
B17: OTUB2 (on the HuProt array) (enzyme, human, UniProt Q96DC9 1-234, looked up)
chain: MSETSFNLISEKCDILSILRDHPENRIYRRKIEELSKRFTAIRKTKGDGNCFYRALGYSYLESLLGKSREIFKFKERVLQTPNDLLAAGFEEHKFRNFFNAFYSVVELVEKDGSVSSLLKVFNDQSASDHIVQFLRLLTSAFIRNRADFFRHFIDEEMDIKDFCTHEVEPMATECDHIQITALSQALSIALQVEYVDEMDTALNHHVFPEAATPSVYLLYKTSHYNILYAADKH
notes: deubiquitinase OTUB2, human, spotted on the HuProt array; source: bought: CDI Laboratories (HuProt v2.0 microarray)

Legend:
[1] = target: T1, TRPV4^WT-ARD (amino acids 149-397) (human, UniProt Q9HBA0 149-397); test: peptide or protein array; HuProt Human Proteome Microarray v2.0, full-length human proteins spotted in duplicate; V5-tagged TRPV4 protein in solution at 1 μM, 1 h at 4 °C, 150 mM NaCl, 2.7 mM KCl, 25 mM Trizma base, 0.05% Tween-20, pH 7.4; detected with Alexa Fluor 647 anti-V5; hit: z-score >= 2 (N terminus: both of 2 slides; ARD constructs: at least 2 of 3 slides); conditions: both partners purified
T1 construct: TRPV4, human, ankyrin repeat domain, amino acids 149-397; source: E. coli BL21(DE3), purified; not shown: His6, C-terminal, kept; V5, C-terminal, kept

[2] = target: T2, TRPV4^WT N-terminal domain (IDR and ARD, amino acids 1-397) (human, UniProt Q9HBA0 1-397); test: as above; conditions: both partners purified
T2 construct: TRPV4, human, N-terminal domain (IDR and ARD), amino acids 1-397; also called TRPV4^WT N terminus; full N terminus; source: E. coli BL21(DE3), purified; not shown: His6, C-terminal, kept; V5, C-terminal, kept

Binder	binding result [1]	binding result [2]
B1	binds	–
B2	binds	–
B3	binds	–
B4	binds	–
B5	binds	–
B6	binds	–
B7	binds	–
B8	binds	–
B9	binds	–
B10	binds	–
B11	binds	–
B12	binds	–
B13	binds	–
B14	binds	–
B15	binds	–
B16	binds	–
B17	–	binds
